Data on one molecule can be found in PMC4355918.

In this data set the target is hnRNP C1 (UniProt P07910-2 1-293). Nature of the data set: filter binding.

AACUUAAUGUUUUUGCAUUGGUCUUUGAGUUA (structured_RNA) [MALAT1 2,577-U]: the binding signal was around 4 fold stronger than N1.
